Laboratory results reported in US20240287484.

Columns and labels:
Details in all cases: qPCR; 3 mM MgCl2, 37 C
[1] = test system: T1, MG153-14 RT (uncultivated organism (metagenomic))
T1 sequence: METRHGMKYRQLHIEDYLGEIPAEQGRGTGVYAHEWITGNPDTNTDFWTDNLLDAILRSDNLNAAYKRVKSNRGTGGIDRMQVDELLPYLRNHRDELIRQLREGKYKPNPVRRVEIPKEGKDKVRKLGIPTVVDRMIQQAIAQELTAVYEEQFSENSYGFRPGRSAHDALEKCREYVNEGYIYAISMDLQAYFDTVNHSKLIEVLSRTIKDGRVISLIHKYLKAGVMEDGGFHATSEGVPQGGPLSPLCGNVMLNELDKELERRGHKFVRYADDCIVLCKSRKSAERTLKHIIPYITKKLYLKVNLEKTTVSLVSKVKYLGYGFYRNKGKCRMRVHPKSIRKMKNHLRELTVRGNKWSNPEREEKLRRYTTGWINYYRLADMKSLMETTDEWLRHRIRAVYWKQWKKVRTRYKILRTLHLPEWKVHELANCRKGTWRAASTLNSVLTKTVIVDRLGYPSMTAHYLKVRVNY

[2] = test system: T2, MG153-28 RT (uncultivated organism (metagenomic))
T2 sequence: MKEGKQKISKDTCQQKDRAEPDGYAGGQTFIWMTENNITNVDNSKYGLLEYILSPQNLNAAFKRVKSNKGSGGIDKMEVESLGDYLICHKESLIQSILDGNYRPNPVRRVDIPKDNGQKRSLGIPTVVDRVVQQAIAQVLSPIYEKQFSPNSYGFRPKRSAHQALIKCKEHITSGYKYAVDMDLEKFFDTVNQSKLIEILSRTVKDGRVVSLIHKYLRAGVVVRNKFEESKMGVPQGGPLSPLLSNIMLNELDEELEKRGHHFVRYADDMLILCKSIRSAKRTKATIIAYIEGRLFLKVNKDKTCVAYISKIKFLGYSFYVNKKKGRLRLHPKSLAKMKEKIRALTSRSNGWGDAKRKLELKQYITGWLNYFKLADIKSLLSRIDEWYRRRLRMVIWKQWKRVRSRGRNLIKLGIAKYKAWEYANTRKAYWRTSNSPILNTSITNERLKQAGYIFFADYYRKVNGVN

[3] = test system: T3, MG153-25 RT (uncultivated organism (metagenomic))
T3 sequence: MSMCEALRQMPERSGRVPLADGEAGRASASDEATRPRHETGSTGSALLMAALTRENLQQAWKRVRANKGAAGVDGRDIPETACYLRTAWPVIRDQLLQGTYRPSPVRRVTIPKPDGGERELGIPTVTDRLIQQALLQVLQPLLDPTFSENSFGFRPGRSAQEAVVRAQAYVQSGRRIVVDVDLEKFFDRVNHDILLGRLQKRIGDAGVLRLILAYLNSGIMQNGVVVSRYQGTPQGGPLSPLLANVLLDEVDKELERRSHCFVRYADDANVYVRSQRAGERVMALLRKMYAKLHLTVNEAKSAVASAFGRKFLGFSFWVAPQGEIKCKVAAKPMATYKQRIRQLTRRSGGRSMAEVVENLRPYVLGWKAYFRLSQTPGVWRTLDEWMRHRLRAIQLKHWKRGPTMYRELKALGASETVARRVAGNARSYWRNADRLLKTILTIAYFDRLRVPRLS

[4] = test system: T4, MG153-39 RT (uncultivated organism (metagenomic))
T4 sequence: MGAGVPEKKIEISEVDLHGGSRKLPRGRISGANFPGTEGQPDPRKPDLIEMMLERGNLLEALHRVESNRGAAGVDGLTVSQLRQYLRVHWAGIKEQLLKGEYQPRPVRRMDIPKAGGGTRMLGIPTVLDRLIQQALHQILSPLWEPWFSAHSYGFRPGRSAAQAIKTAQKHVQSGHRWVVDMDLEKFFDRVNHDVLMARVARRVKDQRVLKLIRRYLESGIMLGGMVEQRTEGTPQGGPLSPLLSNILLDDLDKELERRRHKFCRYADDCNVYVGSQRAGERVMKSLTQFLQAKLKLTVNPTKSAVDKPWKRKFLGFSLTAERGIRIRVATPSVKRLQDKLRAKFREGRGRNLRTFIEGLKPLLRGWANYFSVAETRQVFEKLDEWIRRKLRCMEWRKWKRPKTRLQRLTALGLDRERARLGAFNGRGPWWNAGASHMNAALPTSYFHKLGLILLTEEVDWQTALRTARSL

[5] = test system: T5, MG153-43 RT (uncultivated organism (metagenomic))
T5 sequence: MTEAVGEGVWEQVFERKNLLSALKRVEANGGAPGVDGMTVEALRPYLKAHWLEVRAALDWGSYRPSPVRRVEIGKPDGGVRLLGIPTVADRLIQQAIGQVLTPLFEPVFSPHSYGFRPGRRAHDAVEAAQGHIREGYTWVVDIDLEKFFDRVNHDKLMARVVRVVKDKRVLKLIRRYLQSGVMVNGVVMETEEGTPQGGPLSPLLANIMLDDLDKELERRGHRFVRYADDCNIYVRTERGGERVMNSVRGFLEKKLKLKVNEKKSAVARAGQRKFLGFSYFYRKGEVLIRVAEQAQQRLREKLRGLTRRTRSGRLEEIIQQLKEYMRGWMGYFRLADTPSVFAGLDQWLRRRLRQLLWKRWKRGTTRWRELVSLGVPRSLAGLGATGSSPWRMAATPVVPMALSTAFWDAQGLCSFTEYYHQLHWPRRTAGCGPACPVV

[6] = test system: T6, MG153-27 RT (uncultivated organism (metagenomic))
T6 sequence: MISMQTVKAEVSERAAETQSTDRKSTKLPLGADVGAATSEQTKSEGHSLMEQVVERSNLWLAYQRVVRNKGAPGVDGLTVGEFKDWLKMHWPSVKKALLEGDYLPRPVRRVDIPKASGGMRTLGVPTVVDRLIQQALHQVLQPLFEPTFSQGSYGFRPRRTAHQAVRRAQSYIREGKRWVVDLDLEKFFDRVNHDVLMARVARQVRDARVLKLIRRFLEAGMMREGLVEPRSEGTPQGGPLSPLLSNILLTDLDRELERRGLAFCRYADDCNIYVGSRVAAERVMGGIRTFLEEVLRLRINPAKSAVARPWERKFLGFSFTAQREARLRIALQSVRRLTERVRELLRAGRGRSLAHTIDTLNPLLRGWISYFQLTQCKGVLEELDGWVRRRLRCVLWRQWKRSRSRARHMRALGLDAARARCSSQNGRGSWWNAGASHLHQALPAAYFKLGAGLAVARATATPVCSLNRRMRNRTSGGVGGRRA

Measured: activity (fold over background)

200 nt RNA template annealed to DNA primer
> 10: all assays above
